# Measurements from patent US20250332230A1.
# How the values were obtained:
# [1] = molecular target: Human Alkaline Phosphatase/ALPI Protein (His Tag) (Sino Biological Cat. No. 13225-H08H) (human) (UniProt P09923); test: sandwich ECL (MSD), capture AbD54140ad; MC01, HIAP nominal 12.00 ng/mL
# [2] = molecular target: Human Alkaline Phosphatase/ALPI Protein (His Tag) (Sino Biological Cat. No. 13225-H08H) (human) (UniProt P09923); test: sandwich ECL (MSD), capture AbD54140ad; ST07, HIAP nominal 4.000 ng/mL
# [3] = molecular target: Human Alkaline Phosphatase/ALPI Protein (His Tag) (Sino Biological Cat. No. 13225-H08H) (human) (UniProt P09923); test: sandwich ECL (MSD), capture AbD54140ad; LC01, HIAP nominal 1.500 ng/mL
# [4] = molecular target: Human Alkaline Phosphatase/ALPI Protein (His Tag) (Sino Biological Cat. No. 13225-H08H) (human) (UniProt P09923); test: sandwich ECL (MSD), capture AbD54140ad; ST09, HIAP nominal 1.000 ng/mL
# [5] = molecular target: Human Alkaline Phosphatase/ALPI Protein (His Tag) (Sino Biological Cat. No. 13225-H08H) (human) (UniProt P09923); test: sandwich ECL (MSD), capture AbD54140ad; LLOQ02, HIAP nominal 0.5000 ng/mL
# [6] = molecular target: Human Alkaline Phosphatase/ALPI Protein (His Tag) (Sino Biological Cat. No. 13225-H08H) (human) (UniProt P09923); test: sandwich ECL (MSD), capture AbD54140ad; ST08, HIAP nominal 2.000 ng/mL
# [7] = molecular target: Human Alkaline Phosphatase/ALPI Protein (His Tag) (Sino Biological Cat. No. 13225-H08H) (human) (UniProt P09923); test: sandwich ECL (MSD), capture AbD54140ad; ULOQ01, HIAP nominal 256.0 ng/mL
# [8] = molecular target: Human Alkaline Phosphatase/ALPI Protein (His Tag) (Sino Biological Cat. No. 13225-H08H) (human) (UniProt P09923); test: sandwich ECL (MSD), capture AbD54140ad; ST06, HIAP nominal 8.000 ng/mL
# [9] = molecular target: Human Alkaline Phosphatase/ALPI Protein (His Tag) (Sino Biological Cat. No. 13225-H08H) (human) (UniProt P09923); test: sandwich ECL (MSD), capture AbD54140ad; ULOQ02, HIAP nominal 256.0 ng/mL
# [10] = molecular target: Human Alkaline Phosphatase/ALPI Protein (His Tag) (Sino Biological Cat. No. 13225-H08H) (human) (UniProt P09923); test: sandwich ECL (MSD), capture AbD54140ad; HC02, HIAP nominal 192.0 ng/mL
# [11] = molecular target: Human Alkaline Phosphatase/ALPI Protein (His Tag) (Sino Biological Cat. No. 13225-H08H) (human) (UniProt P09923); test: sandwich ECL (MSD), capture AbD54140ad; ST03, HIAP nominal 64.00 ng/mL
# [12] = molecular target: Human Alkaline Phosphatase/ALPI Protein (His Tag) (Sino Biological Cat. No. 13225-H08H) (human) (UniProt P09923); test: sandwich ECL (MSD), capture AbD54140ad; ST04, HIAP nominal 32.00 ng/mL
# [13] = molecular target: Human Alkaline Phosphatase/ALPI Protein (His Tag) (Sino Biological Cat. No. 13225-H08H) (human) (UniProt P09923); test: sandwich ECL (MSD), capture AbD54140ad; ST02, HIAP nominal 128.0 ng/mL
# [14] = molecular target: Human Alkaline Phosphatase/ALPI Protein (His Tag) (Sino Biological Cat. No. 13225-H08H) (human) (UniProt P09923); test: sandwich ECL (MSD), capture AbD54140ad; MC02, HIAP nominal 12.00 ng/mL
# [15] = molecular target: Human Alkaline Phosphatase/ALPI Protein (His Tag) (Sino Biological Cat. No. 13225-H08H) (human) (UniProt P09923); test: sandwich ECL (MSD), capture AbD54140ad; ST01, HIAP nominal 256.0 ng/mL
# [16] = molecular target: Human Alkaline Phosphatase/ALPI Protein (His Tag) (Sino Biological Cat. No. 13225-H08H) (human) (UniProt P09923); test: sandwich ECL (MSD), capture AbD54140ad; ST10, HIAP nominal 0.5000 ng/mL
# [17] = molecular target: Human Alkaline Phosphatase/ALPI Protein (His Tag) (Sino Biological Cat. No. 13225-H08H) (human) (UniProt P09923); test: sandwich ECL (MSD), capture AbD54140ad; LC02, HIAP nominal 1.500 ng/mL
# [18] = molecular target: Human Alkaline Phosphatase/ALPI Protein (His Tag) (Sino Biological Cat. No. 13225-H08H) (human) (UniProt P09923); test: sandwich ECL (MSD), capture AbD54140ad; HC01, HIAP nominal 192.0 ng/mL
# [19] = molecular target: Human Alkaline Phosphatase/ALPI Protein (His Tag) (Sino Biological Cat. No. 13225-H08H) (human) (UniProt P09923); test: sandwich ECL (MSD), capture AbD54140ad; ST05, HIAP nominal 16.00 ng/mL
# [20] = molecular target: Human Alkaline Phosphatase/ALPI Protein (His Tag) (Sino Biological Cat. No. 13225-H08H) (human) (UniProt P09923); test: sandwich ECL (MSD), capture AbD54140ad; LLOQ01, HIAP nominal 0.5000 ng/mL
# Sequence of UniProt P09923 (P09923 20-503 limits assumed): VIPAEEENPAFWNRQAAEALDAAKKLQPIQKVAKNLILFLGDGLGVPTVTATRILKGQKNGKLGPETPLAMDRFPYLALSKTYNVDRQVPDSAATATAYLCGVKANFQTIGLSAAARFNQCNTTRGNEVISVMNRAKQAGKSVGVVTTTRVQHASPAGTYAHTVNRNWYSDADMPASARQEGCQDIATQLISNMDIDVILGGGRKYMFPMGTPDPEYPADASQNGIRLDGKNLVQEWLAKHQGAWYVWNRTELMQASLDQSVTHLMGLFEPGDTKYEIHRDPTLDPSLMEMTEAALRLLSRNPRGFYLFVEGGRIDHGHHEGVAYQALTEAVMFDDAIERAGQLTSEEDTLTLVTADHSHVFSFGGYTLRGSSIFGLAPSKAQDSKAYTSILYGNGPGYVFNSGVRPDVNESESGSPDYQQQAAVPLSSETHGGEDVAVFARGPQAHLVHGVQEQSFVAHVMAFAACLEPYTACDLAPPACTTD
substance,measurement,setting,value
sulfo-tagged anti-HIAP monoclonal antibody AbD54130ad from BioRad,Instrument Response,[1],64000
same,Instrument Response,[2],27300
same,Instrument Response,[3],9110
same,Instrument Response,[4],7040
same,Instrument Response,[5],3260
same,Instrument Response,[6],13000
same,Instrument Response,[7],508000
same,Instrument Response,[8],54400
same,Instrument Response,[9],528000
same,Instrument Response,[10],456000
same,Instrument Response,[11],301000
same,Instrument Response,[12],186000
same,Instrument Response,[13],416000
same,Instrument Response,[14],68900
same,Instrument Response,[15],504000
same,Instrument Response,[16],3760
same,Instrument Response,[17],9430
same,Instrument Response,[18],444000
same,Instrument Response,[19],101000
same,Instrument Response,[20],3360
